Laboratory results reported in FireProtDB (doi:10.1021/bi00123a002).
“And” between values parts separate entries of the source, which are not always exact repeats. Equal values may be shown once.

B1: Tryptophan synthase alpha chain, P00929 (parent)
chain: MERYENLFAQLNDRREGAFVPFVTLGDPGIEQSLKIIDTLIDAGADALELGVPFSDPLADGPTIQNANLRAFAAGVTPAQCFEMLALIREKHPTIPIGLLMYANLVFNNGIDAFYARCEQVGVDSVLVADVPVEESAPFRQAALRHNIAPIFICPPNADDDLLRQVASYGRGYTYLLSRSGVTGAENRGALPLHHLIEKLKEYHAAPALQGFGISSPEQVSAAVRAGAAGAISGSAIVKIIEKNLASPKQMLAELRSFVSAMKAASRA

Variants of: B1
Settings: Salmonella typhimurium (strain LT2 / SGSC1412 / ATCC 700720), pH 7.8, 25 °C, Urea, CD, Potassium phosphate 10 mM, reversible: yes, structure 2WSY, whole UniProt chain shown

Q: Which “ddG of mutation (higher = less stable)” value does the source give for MERYENLFAQLNDRREGAFVPVVTLGDPGIEQSLKIIDTLIDAGADALELGVPFSDPLADGPTIQNANLRAFAAGVTPAQCFEMLALIREKHPTIPIGLLMYANLVFNNGIDAFYARCEQVGVDSVLVADVPVEESAPFRQAALRHNIAPIFICPPNADDDLLRQVASYGRGYTYLLSRSGVTGAENRGALPLHHLIEKLKEYHAAPALQGFGISSPEQVSAAVRAGAAGAISGSAIVKIIEKNLASPKQMLAELRSFVSAMKAASRA [F22V] here?
A: 3.44 kcal/mol

Q: What about the unfolding free energy of the same variant?
A: 9.72 kcal/mol

Q: And the “ddG of mutation (higher = less stable)” value (transition: 3)?
A: -0.06 kcal/mol

Q: What about the denaturant m value (transition: 3) of the same variant?
A: 1.74 kcal/mol/M

Q: What about the “denaturant midpoint (higher = more stable)” value (transition: 3) of the same variant?
A: 3.3 M

Q: And the unfolding free energy (transition: 3)?
A: 5.87 kcal/mol

Q: What does the source list for MERYENLFAQLNDRREGAFVPLVTLGDPGIEQSLKIIDTLIDAGADALELGVPFSDPLADGPTIQNANLRAFAAGVTPAQCFEMLALIREKHPTIPIGLLMYANLVFNNGIDAFYARCEQVGVDSVLVADVPVEESAPFRQAALRHNIAPIFICPPNADDDLLRQVASYGRGYTYLLSRSGVTGAENRGALPLHHLIEKLKEYHAAPALQGFGISSPEQVSAAVRAGAAGAISGSAIVKIIEKNLASPKQMLAELRSFVSAMKAASRA [F22L]?
A: ddG of mutation (higher = less stable): 1.05 kcal/mol; unfolding free energy: 12.1 kcal/mol; denaturant m value (transition: 3): 2.96 kcal/mol/M and 1.7 kcal/mol/M; denaturant midpoint (higher = more stable) (transition: 3): 2.1 M and 3.3 M; unfolding free energy (transition: 3): 6.38 kcal/mol and 5.73 kcal/mol

Q: Which results are given for MERYENLFAQLNDRREGAFVPIVTLGDPGIEQSLKIIDTLIDAGADALELGVPFSDPLADGPTIQNANLRAFAAGVTPAQCFEMLALIREKHPTIPIGLLMYANLVFNNGIDAFYARCEQVGVDSVLVADVPVEESAPFRQAALRHNIAPIFICPPNADDDLLRQVASYGRGYTYLLSRSGVTGAENRGALPLHHLIEKLKEYHAAPALQGFGISSPEQVSAAVRAGAAGAISGSAIVKIIEKNLASPKQMLAELRSFVSAMKAASRA [F22I]?
A: ddG of mutation (higher = less stable): 4.58 kcal/mol; unfolding free energy: 8.58 kcal/mol; denaturant m value (transition: 3): 1.57 kcal/mol/M and 1.51 kcal/mol/M; denaturant midpoint (higher = more stable) (transition: 3): 2 M and 3.6 M; unfolding free energy (transition: 3): 3.16 kcal/mol and 5.43 kcal/mol
